From article PMC12640004 come the findings set out here.

Residue numbers refer to the chain shown, from its start.

This data set deals with JrERF113-HIS (Juglans regia). The experiment in a line: EMSA. (Mobility shift assays separate free from complexed probe on a gel.)

B1: JrIPT1 bioProbe (wild type) (dsDNA)
DNA 1: ATCATACTGATGGAGGAGGGCGGTCCCGAATTTATATATATAGTTTCTAC
DNA 2: GTAGAAACTATATATATAAATTCGGGACCGCCCTCCTCCATCAGTATGAT
For B1, the binding result was “binds”.

B2: JrIPT1 mbioProbe (GCC-box mutant) (dsDNA)
DNA 1: B1 DNA 1 with G16T, G18T, G19T, G20T, G22T, G23T
DNA 2: B1 DNA 2 with C28A, C29A, C31A, C32A, C33A, C35A
Turning to B2, the binding result is on record as “no binding”.
